Measured values published in publication PMC7076025, “A unique DNA-binding mode of African swine fever virus AP endonuclease”.

Target: T1, AsfvAP WT (African swine fever virus, UniProt P0C9C6 1-296)
T1 sequence: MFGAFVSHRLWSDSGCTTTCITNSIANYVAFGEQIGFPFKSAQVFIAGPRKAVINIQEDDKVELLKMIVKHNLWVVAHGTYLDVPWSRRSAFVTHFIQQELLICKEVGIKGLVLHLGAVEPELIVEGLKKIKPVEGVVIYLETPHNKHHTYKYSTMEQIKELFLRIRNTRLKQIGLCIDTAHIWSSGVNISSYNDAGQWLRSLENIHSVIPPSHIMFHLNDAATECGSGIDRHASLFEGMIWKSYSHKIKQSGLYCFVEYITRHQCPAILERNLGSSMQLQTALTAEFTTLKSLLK
Assay: X-ray crystallography
Conditions: protein: recombinant; tags: His-SUMO removed with Ulp1; GSGGG linker encoded before M1

B1: DNA-2 (dsDNA)
DNA 1: GCAGCGTCACCGACGAAA
DNA 2: CCTCGTCGGGGACGCTGC
B1: binds.
